Experimental data taken from US20070098719A1 (GITR, published 2007).

Columns and labels:
[1] = target: T1, human GITR (hGITR), glucocorticoid-induced TNF receptor (human, UniProt Q9Y5U5 26-241); assay: FACS, L-M (mouse fibroblast) cells transfected with the GITR gene, 50 ul hybridoma supernatant
T1 construct: also called TNFRSF18
T1 sequence: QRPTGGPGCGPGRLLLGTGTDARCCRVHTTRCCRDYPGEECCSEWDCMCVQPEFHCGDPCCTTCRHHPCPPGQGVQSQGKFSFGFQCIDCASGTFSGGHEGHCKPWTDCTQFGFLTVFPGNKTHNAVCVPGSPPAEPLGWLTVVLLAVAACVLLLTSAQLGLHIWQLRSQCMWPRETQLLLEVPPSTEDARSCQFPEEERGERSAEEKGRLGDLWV
Experimental: FIG. 3 depicts a FACS analysis of L-M (mouse fibroblast) cells transfected with the GITR gene that were stained with 50 μl of supernatant fluid from GITR-expressing hybridoma cells. The GITR binding molecule stained GITR-transfected cells but not the untransfected L-M cells.

[2] = target: T2, human GITR (hGITR), glucocorticoid-induced TNF receptor (UniProt Q9Y5U5 26-241); assay: SPR
T2 chain: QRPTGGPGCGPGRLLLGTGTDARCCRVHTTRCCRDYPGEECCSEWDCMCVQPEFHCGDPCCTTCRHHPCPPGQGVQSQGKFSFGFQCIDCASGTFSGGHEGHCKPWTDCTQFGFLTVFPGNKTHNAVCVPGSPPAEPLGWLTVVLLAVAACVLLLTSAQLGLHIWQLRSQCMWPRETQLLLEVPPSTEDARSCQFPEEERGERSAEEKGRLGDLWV

binding result [1]: binds | Kd [2]: 1.1 nM
B1: 6C8 antibody (antibody, V domains shown)
VH: QVTLKESGPGILKPSQTLSLTCSFSGFSLSTSGMGVGWIRQPSGKGLEWLAHIWWDDDKYYNPSLKSQLTISKDTSRNQVFLKITSVDTADAATYYCARTRRYFPFAYWGQGTLVTVSS
VL: DIVMTQSQKFMSTSVGDRVSVTCKASQNVGTNVAWYQQKPGQSPKALIYSASYRYSGVPDRFTGSGSGTDFTLTINNVHSEDLAEYFCQQYNTDPLTFGAGTKLEIK
notes: also called anti-GITR
